Laboratory results: patent US20240317807A1 (COMPLIX, published 2024)

How the values were obtained:
[1] = biological target: MCL-1 (endogenous, in human multiple myeloma cells such as NCI-H929) (human, UniProt Q07820 1-350); assay: cell-based or functional assay
human serum albumin [2] = biological target: T1, human serum albumin (human, UniProt P02768 25-609); assay: solution ELISA, KD 310 nM against 7.5 nM
T1 construct: also called HSA
Experimental: (§1) A Nunc plate was blocked O/N with PBS+2% skimmed milk in PBS at 4° C. […] In addition, a ‘calibrator’ dilution series of CPAB (seven 3-fold dilutions starting at 100 nM plus a blank) in 100 mM TRIS+100 mM NaCl+1% BSA at pH 7.4 was prepared. The albumin-CPAB mixtures and the calibrator series were then transferred to the ELISA plate in duplicate (two columns for each series) and incubated for another 30 min at RT while shaking. Detection of plate-bound CPAB was performed with 1/5000 anti-V5-HRP (Invitrogen. R961-25) in PBS+0.1% BSA for 30 min at RT while shaking. After each incubation step, the plate was washed 4× with PBS containing 0.05% Tween 20.

human serum albumin [3] = biological target: T1, human serum albumin; assay: solution ELISA, free CPAB detected on milk-blocked plate
Experimental: as §1

mouse serum albumin = biological target: T2, mouse serum albumin (mouse, UniProt P07724 25-608); assay: as above
T2 construct: also called MSA
T2 sequence (P07724 25-608 limits assumed): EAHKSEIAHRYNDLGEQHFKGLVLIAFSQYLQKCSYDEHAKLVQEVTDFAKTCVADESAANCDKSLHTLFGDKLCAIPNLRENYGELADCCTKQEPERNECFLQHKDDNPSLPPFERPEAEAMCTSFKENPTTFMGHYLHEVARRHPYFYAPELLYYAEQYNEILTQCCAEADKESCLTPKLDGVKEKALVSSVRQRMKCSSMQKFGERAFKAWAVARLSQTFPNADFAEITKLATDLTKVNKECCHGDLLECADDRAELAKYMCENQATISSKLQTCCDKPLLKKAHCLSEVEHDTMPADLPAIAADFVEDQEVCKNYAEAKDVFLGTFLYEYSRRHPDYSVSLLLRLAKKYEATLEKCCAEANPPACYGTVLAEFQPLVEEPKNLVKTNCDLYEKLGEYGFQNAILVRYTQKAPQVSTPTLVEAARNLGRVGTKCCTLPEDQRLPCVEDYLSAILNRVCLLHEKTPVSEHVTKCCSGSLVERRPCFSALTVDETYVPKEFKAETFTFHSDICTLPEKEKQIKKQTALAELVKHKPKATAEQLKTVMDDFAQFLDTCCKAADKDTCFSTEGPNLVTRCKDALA
Experimental: as §1

[4] = biological target: T3, GST-tagged MCL-1 (GST-MCL-1 fusion protein, MCL-1 residues Asp172-Gly327) (human, UniProt Q07820 173-327); assay: solution ELISA, free GST-MCL-1 captured on Alphabody phage
T3 construct: not shown: Glutathione S-transferase fusion partner from the pET42 vector (Novagen)
T3 sequence (Q07820 173-327): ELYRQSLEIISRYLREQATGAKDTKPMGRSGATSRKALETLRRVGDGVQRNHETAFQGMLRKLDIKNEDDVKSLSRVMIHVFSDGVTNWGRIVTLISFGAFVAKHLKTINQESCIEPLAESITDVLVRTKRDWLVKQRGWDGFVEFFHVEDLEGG
Experimental: A Nunc plate was coated with 1 μg/mL anti-M13 (Fischer Scientific) in PBS for 2 h at room temperature (RT). The plate was then blocked with 2% skimmed milk in PBS for 2 h at RT while shaking. […] After each incubation step, the plate was washed 4× with PBS containing 0.05% Tween 20, except after the incubation step of the mixture and calibrator samples where the plate was washed 12 times. The plate was developed with Sure Blue and the reaction was stopped with H₂SO₄. Optical densities (ODs) were read at 450 nm.

Sequence of MCL-1 (endogenous, in human multiple myeloma cells such as NCI-H929) (Q07820 whole entry): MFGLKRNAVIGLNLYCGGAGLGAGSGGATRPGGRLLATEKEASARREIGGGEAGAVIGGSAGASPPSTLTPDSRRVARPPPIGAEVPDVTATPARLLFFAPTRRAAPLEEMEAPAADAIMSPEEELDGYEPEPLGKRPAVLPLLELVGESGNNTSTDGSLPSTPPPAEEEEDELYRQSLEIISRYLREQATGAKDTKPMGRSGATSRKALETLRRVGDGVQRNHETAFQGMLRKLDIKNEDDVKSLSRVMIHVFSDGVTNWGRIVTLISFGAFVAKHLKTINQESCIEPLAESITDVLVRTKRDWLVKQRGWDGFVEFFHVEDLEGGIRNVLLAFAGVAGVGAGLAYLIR

in vitro IC50 on MM cell line MOLP-8 [1] [nM] | in vitro IC50 on MM cell line NCI-H929 [1] [nM] | fold reduction in affinity against the Gly40 form (human serum albumin [2]) [fold] | Kd (human serum albumin [3]) [nM] | Kd (mouse serum albumin) [nM] | Kd [4] [nM] | Binder
820 | 450 | 40 | 310 | 2250 | 0.028 | Alphabody CMPX-383B (designed binder, an engineered disulfide bond links helix E to helix C; Has Ala at the position called 40) MGHHHHHHHHHHSSGHIEGRHGPRPRPRPRPRPRPRPGGMSTEQIQKRTAAIQKRIAAIQKRIYAMTASGGAGAAGAGAGMSIEEITKQIAAIQLRIVGDQVQIAYQTASGAGAGAGGMSTEEIQKQIAAIETQICKIEAAIELKEAGITSDFYFELINKAKTCEAVEALKEHILAAHTPRPRPRPRPRPRPRPGSGKPIPNPLLGLDST
 |  |  | 7.5 | 298 | 0.043 | CMPX_383B_Gly40 (designed binder) MGHHHHHHHHHHSSGHIEGRHGPRPRPRPRPRPRPRPGGMSTEQIQKRTAAIQKRIAAIQKRIYAMTASGGAGAAGAGAGMSIEEITKQIAAIQLRIVGDQVQIAYQTASGAGAGAGGMSTEEIQKQIAAIETQICKIEAAIELKEAGITSDFYFELINKAKTCEGVEALKEHILAAHTPRPRPRPRPRPRPRPGSGKPIPNPLLGLDST
